In publication PMC12813979, “A Site-Specific Self-Association of a Protein Hub Drives Its Phase Separation” (ACS Chemical Biology, 2025) one finds Kd, koff and kon data, which are given here for one molecule.

Experiment [1] has as its target N-terminus truncated WDR5, WDR5 23-334 (human, UniProt P61964 23-334). The experiment is described as follows: BLI; biotinylated MLL3Win peptide immobilised on streptavidin sensors; WDR5 (0.11-9.0 µM) or ΔN-WDR5 (0.10-9.0 µM) in the wells; 150 mM KCl, 20 mM Tris-HCl, 1 mM TCEP, 1 mg/mL BSA, pH 7.5; global fit of kon and koff, KD derived indirectly from them; triplicates. Conditions: both partners purified. In general terms: BLI is a label-free optical method that tracks binding on a fibre tip over time.

Experiment [2] has as its target WD40 repeat protein 5 (WDR5), full-length (human, UniProt P61964 1-334). Described as above. As to conditions: both partners purified.

* marks the point of attachment. Biotin = O=C1N[C@H]2[C@H](CS[C@H]2CCCCC(=O)*)N1

B1: Win-like motif-based peptide ligand of mixed lineage leukemia 3 (MLL3Win) (peptide)
chain: Biotin-VNPTGCARSEPKMS-NH2
SMILES: CSCC[C@H](NC(=O)[C@H](CCCCN)NC(=O)[C@@H]1CCCN1C(=O)[C@H](CCC(=O)O)NC(=O)[C@H](CO)NC(=O)[C@H](CCCNC(=N)N)NC(=O)[C@H](C)NC(=O)[C@H](CS)NC(=O)CNC(=O)[C@@H](NC(=O)[C@@H]1CCCN1C(=O)[C@H](CC(N)=O)NC(=O)[C@@H](NC(=O)CCCC[C@@H]1SC[C@@H]2NC(=O)N[C@@H]21)C(C)C)[C@@H](C)O)C(=O)N[C@@H](CO)C(N)=O
As for B1, in experiment [1], binding was characterised by a dissociation constant (Kd) of 170 nM; the koff – broadly, the first-order rate constant of dissociation – was found to be 0.0097 s⁻¹; the kon – broadly, the rate constant with which the complex forms – was found to be 63000 M⁻¹ s⁻¹. Also, in experiment [2], the Kd (usually the constant that tells how readily two partners part at equilibrium) came to 190 nM, the dissociation rate constant (koff) came out at 0.012 s⁻¹ and the kon amounted to 66000 M⁻¹ s⁻¹.
